Data published in patent publication US20210403538A1 (published 2021).

B1: rEBOV-548 (antibody, V domains shown)
VH: QVQVEESGGGVVQPGGSLRLSCAASGFMFSNYGMHWVRQAPGKGLEWMAFIRYDDSKKFYADSVKGRFTISRDNSKNTLYLQMNSLRAEDTALYYCAKELLQVYTSAWGEGHSYYYALDVWGLGTAVTVSS
VL: DIQMTQSPSSVSASVGDRVTITCRASQDISNWLAWYQQKPGKAPELLIYTASILQSGVSSRFSGSGSGTDFTLTISSLQPEDSATYYCQQGKSFPYTFGQGTKLEIK
B2: rEBOV-542 (antibody, V domains shown)
VH: EVQLVESGGGLVQPGGSLRLSCAASGFTVSNNYMSWVRQAPGKGLEWVSLIYTSVTTYYADSVKGRFTISRDNSKNTLYLQMNSLRAEDTAVYYCARELGNWSYGVSYWGRGTLVTVSS
VL: SYELTQPPSVSVSPGQTARITCSGDALPKQYAYWYQQKPGQAPVLVIYKDSERPSGIPERFSGSSSGTTVTLTISGVQAEDGADYYCQSADGSGTYPVVFGGGTKLTVL
B3: EBOV-515 (antibody, V domains shown)
VH: QVQLQESGPGLVKPSQTLSLTCTVSGGSINSAGYYWTWIRQHPGKGLEWIGYIDYTGRTYYNPSLESRVIISIDTSKNHFSLRLTSVSAADTAVYYCARESSWVSELGRDNWGQGTLVTVSS
VL: EIVMTQSPATLPVSPGEGATLSCRASQSVFTNLAWYQQKPGQAPRLLIYDASTRATGIPARFSGSGSGTEFTLTISSLQSEDFAVYYCQQYNNWPRTYGQGTRVEVK
B4: rEBOV-520 LALA (antibody, V domains shown)
VH: QVQLQESGPGLGKPSETLSLSCTVSGASIRGYFWNWIRQPPGKGLEWIGYIHSTGSTNYNPSLKSRVTISVDTSKNQVSLNVNSVTAADTAVYFCARGAWNVATVYYYYGMDVWGQGTLVTVSS
VL: EIVLTQSPGTLSLSPGERATLSCRASQSVSSSYFAWYQQKPGQAPRLLISGTSTRAPGIPDRFSGSGSGTDFTLTISRLEPEDFAVYFCQQYGNSLYTFGQGTKLEIK

Assays:
BDBV GP [change] = BDBV GP [change] (Bundibugyo ebolavirus (BDBV), strain …); assay: ELISA
EBOV GP [change] [1] = target: T1, EBOV GP [change] (Zaire ebolavirus (EBOV), strain Makona); assay: ELISA
EBOV GP [change] [2] = target: T1, EBOV GP [change]; assay: BLI

Row | Binder | EC50 (BDBV GP [change]) [ng/mL] | EC50 (EBOV GP [change] [1]) [ng/mL] | Kd (EBOV GP [change] [2]) [pM]
1 | B1 | 7 | 6 | 41
2 | B2 | 8 | 11 | 260
3 | B3 | – | – | 530
4 | B4 | 45 | 18 | 2120
